According to paper PMC4351158 (Structure (London, England : 1993), 2015):
Changes are numbered by the printed parent chain. Where no end group is shown, it is not given here. fluorescein = fluorescein, a fluorescent label on the peptide N-terminus

Assays:
Assay in all cases: fluorescence polarisation
DegS Q187A = target: T1, DegS Q187A (E. coli, UniProt P0AEE3 27-355, Q187A)
T1 sequence (looked up): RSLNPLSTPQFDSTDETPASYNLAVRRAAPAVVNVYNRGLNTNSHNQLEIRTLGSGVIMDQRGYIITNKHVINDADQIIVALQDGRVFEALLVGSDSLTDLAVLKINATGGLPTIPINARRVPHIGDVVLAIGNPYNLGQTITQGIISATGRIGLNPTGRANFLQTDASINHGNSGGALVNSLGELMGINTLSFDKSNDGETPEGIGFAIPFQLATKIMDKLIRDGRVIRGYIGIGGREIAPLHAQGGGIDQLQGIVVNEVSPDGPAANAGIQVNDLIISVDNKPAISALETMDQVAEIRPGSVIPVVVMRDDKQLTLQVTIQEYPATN

DegS I232A = target: T2, DegS I232A (E. coli, UniProt P0AEE3 27-355, I232A)
T2 sequence (looked up): T1 sequence (looked up) with A161Q, I206A

DegS T167V/H198P = target: T3, DegS T167V/H198P (E. coli, UniProt P0AEE3 27-355, T167V | H198P)
T3 sequence (looked up): T1 sequence (looked up) with T141V, A161Q, H172P

DegS N197A/H198P = target: T4, DegS N197A/H198P (E. coli, UniProt P0AEE3 27-355, N197A | H198P)
T4 sequence (looked up): T1 sequence (looked up) with A161Q, N171A, H172P

DegS H198P/E230A = target: T5, DegS H198P/E230A (E. coli, UniProt P0AEE3 27-355, H198P | E230A)
T5 sequence (looked up): T1 sequence (looked up) with A161Q, H172P, E204A

DegS I179A = target: T6, DegS I179A (E. coli, UniProt P0AEE3 27-355, I179A)
T6 sequence (looked up): T1 sequence (looked up) with I153A, A161Q

Kd (DegS Q187A): 2300 ± 100 nM
Kd (DegS I232A): 2200 ± 300 nM
Kd (DegS T167V/H198P): 1900 ± 700 nM
Kd (DegS N197A/H198P): 700 ± 100 nM
Kd (DegS H198P/E230A): 1800 ± 400 nM
Kd (DegS I179A): 2300 ± 400 nM
B1: fluorescent OMP peptide fluorescein-DNRDGNVYYF (peptide)
peptide: fluorescein-DNRDGNVYYF
